In paper PMC2731815:

Legend:
[1] = biological target: thrombomodulin fragment 4-6 (TM4-6); experiment: competition in a kinetic assay
[2] = biological target: Fl-FPR-inhibited thrombin (UniProt P00734); experiment: other fluorescence titration

Substance	Kd [1]	Kd [2]
Ser-195 to Ala (S195A) substitution mutant of thrombin (from UniProt P00734 44-622) (enzyme)	9 nM	–
thrombomodulin fragment 4-6 (TM4-6) (domain or fragment)	–	3.5 nM
